Laboratory results: US20160280799A1
Numbering of substitutions follows the chain as printed.

B1: 203-H9 (VHH)
VHH: EVQLVESGGGLVQPGGSLRLSCTGSGFTFSSYWMDWVRQTPGKDLEYVSGISPSGGNTDYADSVKGRFTISRDNAKNTLYLQMNSLQPEDTALYYCRRSLTLTDSPDLRSQGTQVTVSS
B2: 202-C8 (VHH)
VHH: B1 VHH with G56S, Q87K
B3: building block of RSV407 (monovalent) (VHH)
VHH: EVQLVESGGGLVQAGGSLSISCAASGGSLSNYVLGWFRQAPGKEREFVAAINWRGDITIGPPNVEGRFTISRDNAKNTGYLQMNSLAPDDTAVYYCGAGTPLNPGAYIYDWSYDYWGRGTQVTVSS
B4: 203-B12 (VHH)
VHH: EVQLVESGGGLVQPGGSLRLSCAASGFTFSSYAMGWVRRAPGEGLEWVSSISSGGALPTYADSVKGRFTISRDNVKNTLYLQMNSLKPEDTAVYSCEKYAGSMWTSERDAWGQGTQVTVSS

How the values were obtained:
[1] = target: hemagglutinin (HA) of A/Vietnam/1194/04 (H5N1) on MLV(HA) pseudotyped virions (influenza A virus A/Vietnam/1194/04 (H5N1))
[2] = substrate: F protein of RSV (Long strain) (human respiratory syncytial virus, Long strain) (UniProt P12568); experiment: cell-based or functional assay
Chain of F protein of RSV (Long strain) (human respiratory syncytial virus, Long strain) (P12568 26-574): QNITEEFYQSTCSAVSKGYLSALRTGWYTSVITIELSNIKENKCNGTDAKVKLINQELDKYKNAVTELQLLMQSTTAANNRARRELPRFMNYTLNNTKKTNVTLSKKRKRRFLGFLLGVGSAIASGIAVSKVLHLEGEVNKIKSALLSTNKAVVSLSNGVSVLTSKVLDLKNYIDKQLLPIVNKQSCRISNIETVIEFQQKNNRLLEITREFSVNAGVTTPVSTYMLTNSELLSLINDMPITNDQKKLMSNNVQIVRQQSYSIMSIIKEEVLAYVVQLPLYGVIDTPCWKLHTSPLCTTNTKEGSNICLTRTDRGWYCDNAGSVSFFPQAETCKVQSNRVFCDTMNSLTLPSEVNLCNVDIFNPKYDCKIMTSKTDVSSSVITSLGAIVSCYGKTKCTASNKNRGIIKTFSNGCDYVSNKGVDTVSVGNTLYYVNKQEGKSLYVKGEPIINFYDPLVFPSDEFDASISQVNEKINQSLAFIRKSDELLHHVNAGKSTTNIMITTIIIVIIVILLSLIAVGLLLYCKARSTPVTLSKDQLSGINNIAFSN

Binder | IC50 (read off the curve) [1] [nM] | IC50, neutralization of RSV infection, Long strain [2] [nM]
B1 | 8 | 
B2 | 10 | 
B3 |  | 50 to 100
B4 | 10 | 
